Measurements taken from the nanobody polyreactivity screen of Harvey et al. (2022).

Assay: yeast display, Sf9 membrane polyspecificity reagent, FACS + sequencing; frameworks hold sequencing errors
Procedure, shortened: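 Galactose induction of a Saccharomyces cerevisiae BJ5465 synthetic nanobody display library ran 36–48 hours. The cells were then stained for 1 hour at 4 °C with 10% biotinylated, detergent-solubilized Sf9 membrane reagent, pulled down on streptavidin microbeads and FACS-sorted into low and high (top ~1%) gates on expression and reagent-binding fluorescence. Labels for polyreactivity follow the gate of origin.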

Sequence | polyreactivity (PSR sort gate)
QVQLVESGGGLVQAGGSLRLSCAASGSTFVPYVMGWYRQAPGKERELVAAISKSGTSTYYADSVKGRFTISRDNAKNTDYLQMNSLKPEDTAVYYCAAVARRQVPYDYWGQGTQVTVSS | high polyreactivity
QVQLVESGGGLVQAGGSLRLSCASSGRIFRYYDMGWYRQAPGKERELVASITSGGSTNYADSVKGRFTISRDNAKNTVYLQMNSLKPEDTAVYYCAARWGYARANGYDYWGQGTQVTVSS | high polyreactivity
QVQLQESGGGLVQAGGSLRLSCAASGTIFRPATKGWYRQAPGKECEFVASITIGTITNYADSVKGRFTISRDNAKNTVYLQMNSLKPEDTAVYYCAVYGTWEVDLYYWGQGTQVTVSS | high polyreactivity
QVQLVESGGGLDQAGGSLRLSCAASGRIFGRNAMGWYRQAPGKERELVAAITWSGGSTNYADSVKGRFTISRDNAKNTVYLEMNSLKPEDTAFYYCAKRYTPRPYKGICYYYWGQGTQVTVSS | high polyreactivity
QVQLVESGGGLVQAGGSLRLSCAASGRTFVYNAMGWYRQAPGKEREFVAAISDGGGDTYYADSVKGRFTISRDNAKNTVYLQMNSLKPEDTAVYYCNVEWQQPGYAFDYWGQGTQVTVSS | low polyreactivity
QVQLVESGGGLVQAGGSLRLSCAASGIIFWSYTMGWYSQAPGKERELVAVITSDGSTNYADSVKGRITISRDNAKNSVYLQMKSLKPEDTAVYDCAADPWLGTGRYDYWGQGTQVTVSS | low polyreactivity
QVQLVESGGGLVQAGGSLRLSCAASGLTFYYYAMGWYRQAPGKERELVAAISATGGRTDYADSVKGRFTISRDNAKNTVYLQMNSLKPADPAVYYCAADTPYLRRRRGMDYWGQGTQVTVSS | high polyreactivity
QGQLVESGGALVQAGGSLRLSCAASGGTFFYYVMGWYRQAPGQERELVAAITGAGGSTYYADSVKGRFTSSRDNAKNTVYLQMNSLKPEDTAVYYCAADVSFTQSDGRLAEYGYWGQGTQVTVSS | low polyreactivity
QVQLVESGGGLVQAGGSLRLSCAASGFIFGAYTMGWYRQAPGKESELVADISRRGGTTYYADSVKGRFTISRDNAKNTVYLQMNSLKPEDTAVYYCANVANFWYNTTLRGYYYWGQGTQVSVSS | high polyreactivity
QVQLVESGGGLVQAGGSLRLSCAASGSTFSPNAMGWYRQAPGKERELVAAITGGGSTYADSVKGRFTISRDNAKNTVYLQMNSLKPEDTAVYYCNRDYRSDLGYADQSWTDQYDYWGQGTQVTVSS | low polyreactivity
QVQLVESGGGLVQAGGSLRLSCAASGSTFLVNAKGWYRQAPGKEWEFVAAITGNAGSTYYADSVKGRFTISRDNEKYTVYLQMNSLKPEDTAVYYCAAALPGYDGDYWGQGTQVTVSS | low polyreactivity
QVQHVESGGGLVQAGGSLRLSCAASGFIFTYYGMGWYRQAPGKERELVAAITWSGASTYYADSVKGRFTISRDNAKNTVYLQMNSLKPEDSAVYYCNAVWDSGIVQSDETVYKYDYWGQGTQVTVSS | low polyreactivity
QVQLVESGGGLVQAGCSLRLSSAASGSTFRANAMGWYRQAPGKERELVAAITSGGSTNYADSVKGRFTISRDNAKNTVYLQMNRRKPEDTAVYYCADESYQEHSFYVYYGYDYWGQGTQVTVSS | low polyreactivity
QVQLVESGGGLVQAGGSLRLSCAASAFYTNAMGWYRQAPGKERELVAAITSDGDSTYYADSVKGRFTISRDNAKNTVYLQMNSLKPEDNAVYYCAADAVPTSVVDWGFYGMYWGQGTQVTVSS | low polyreactivity
QVQLVESGGGLVQAGGSLRLSCAASGRIFDSNAMGWYRQAPGKERELVAYITSGGRTYYADSVKGRFTISRDNAKNTVYLQMNSLKAEDTAVYYCAVRSYKRGPLDYWGQGTQVTVSS | high polyreactivity
QVQLVESGGGLVQAGGSLRLSCAASGRTIEGYAMGCYRQAPGKERELVAAISRRGGSTYYADSVKGRFTISRDNAKNTVYLQMNSLKPEDTAVYYCAARDGSTGAVRYYYWGQGTQVTVSS | high polyreactivity

Sequence | polyreactivity (PSR sort gate)
QVQLVESGGCLVQAGGSLRLSCAASGRIFGYYARGWYRQSAGKERELVAAITRNGGSTYYADSVKGRFTISRDNAKNTVYIQMISLKPVDTAVYYCYATKGGGRGYWCQGTQVTVSS | high polyreactivity
QVQLVESGGGLVQAGGSLRLSCAASGRIFGYYAMGWYRQAPGKERELVAAITINGGRTYYADSVKGRFTISRDNAKNTVYLQMNSLKPEDTAVYYCTATSRYNRLGYWGQGTQVTVSS | high polyreactivity
QVQLGESGGGLVQAGGSLRLSCAASGIIFLGYAMGSYRQAPGKERELVAAFYSGVRTYYADSVKGRFTISRDNAKNTVYLQMNSLKPEDTAVYYCNATWTPYSSKQYYYWGLGTQVTVSS | low polyreactivity
QVQLVESVGGLVQAGGSLRLSCAASGLTFNHYAMGWYRQAPGKEMELVAAISKSGSSTYYADSVKGRFTISRDNAKNTVYLQMNSLKPEDTAVYYCAARSWDPALYDYWGQGTQVTVSS | high polyreactivity
QVQLVESGGGLVQAGGSLRLSCAASGRIFERYAMGWYRQAPGKERELVAAISGGGSTYYADSVKGRFTISRDNAKNTVYLQMNSLTPEDTAFYYCNTRGNSRMDYWGQGTQVTVSS | high polyreactivity
QVQRVESGGGLVQAGGSLRLSSAGSGSIFNIYTMGWYRQAPGKERELVAAISYGGGSTYADSVKGRLTISRDNAKNTVYLQMNSLKPEDTAVYYCNAKRTYHWRWYQYDYWGQGTQVTVSS | high polyreactivity
QVQLVESGGGLVQAGGSLRLSCAASGSILDNYGMGWYRQAPGKERELVASISGGAGSPNYADSVKGRFTISRDNAKNTVYLQMYSLKPEVTAVYDCNADQIFGPALNLWKLDYWGQGNQVTVSS | low polyreactivity
QVQLVESGGGLVQAGGSLRLSCAASGRIFDRYAMGWYRQAPGKERELVAAITSSGGRTYYADSVKGRFTISRDNAKNTVYLQMYSLKPEDTAVYYCAARWYGGYNYWGQGTQVTVSS | high polyreactivity
QVKLVESGGGLVQAGCSLRLSCAASGRIYGGYTMGRYRPAPGKERELVAAITGSGGRTYFADSVKGRFTISRDNAKNTVYLHMNILTPEDTAVYYCNTVYPYRYYWGHGTQVTVSS | high polyreactivity
QVHLVESGGGLVQAGGSLRLSCAASGRILNWNAMGWYRQAPGKDREFVAAIRTSGGDSTSYADSVKGRFTISRDNAKNTVYLQMTSLKPEDTAVFDCAKTVWWYYRYPFDYWGQGTQVTVSS | low polyreactivity
QVQLVESGGGLVQAGGSLRLSCAASGRTFKVYAMGWYRQAPGKERELVASINRGSSTYADSVKGRFTISRDNAKNTVYLQMNSLKPEDTAVYYCAARWWRQSRYYYWGQGTQVTVSS | high polyreactivity
QVQLQESGGGLLQADGSLRLSCAASGTIFTQSYMGWYRQAPGKEREFVAGISNGTNTNYGDSVKGRFTISRDNAKNTVYLQMNSLKLEDTAVYYCAVKGFYVDVLAYWGQGTHVTVSS | high polyreactivity
QVQLVESGGGFVQAGGSLRLSCAASGSIFWTYAMGWYRPAPGNERELVATIPYSDGNTYYADSVKGRFTISRDHAKNTVYLQMNSLKPEDTAVYYGAADTVPDWQEYDYWGQGTQVTVSS | low polyreactivity
QVQLVESGGGLVQAGGSLRLSCDASGRIFRKNAMGWYRQAPGKERELVAAISGGGGSTYYADSVKGRFTISRDNAKNTVYLQMNSLKPEDTADYYCNAPILPGYWGQGTQVTVSS | high polyreactivity
QVQLQESGGGLVQAGGSLRLSCAESGTIFGWDRMGRYRQAPGKERELVATIDNRGSTNYADSVKGRFTISRDNAKNTVYPQMNSLKPDDTAVYYCAVVGPTPQYHLYWGQGTQVTVSS | high polyreactivity
QVQLVESGGGLVQAGGSLRLSCAASGIIFKSYVMGWYRQAPGKEREFVARITYRGGSTYYADSVKGRFTISRDNAKNTVYLQMNSLKPEDTAVYYCNKKNPQDLTENGYWGQGTQVTVSS | high polyreactivity
